{
  "source": "patent US9034821B2",
  "about": "“Pharmaceutical composition” (priority 2011, dated 2015)",
  "origin": "cited, not measured here",
  "note": "Read-outs that look alike come from different tables or passages of the source.",
  "data": [
    {"substance": "Cys-Tyr-Ile-Gln-Asn-Cys-Pro-Leu-Gly-NH2 [oxytocin]", "values": [
      {"measurement": "pH of best stability", "setting": "aqueous solutions of different pH", "value": 4.5},
      {"measurement": "degradation of oxytocin", "setting": "buffered aqueous solution of pH 3, stored at 70° C. for 7 days", "value": "about 15 % (area %)"},
      {"measurement": "degradation of oxytocin", "setting": "buffered aqueous solution, pH 4, stored at 70° C. for 7 days", "value": "approximately 35 % (area %)"}
    ]}
  ]
}
